The text below walks through data of patent US20190024095A1.

For this experiment, the target named is CD19 on Raji B cells (UniProt P15391). In words: cell-based or functional assay.
UniProt P15391, sequence (P15391 20-556 limits assumed): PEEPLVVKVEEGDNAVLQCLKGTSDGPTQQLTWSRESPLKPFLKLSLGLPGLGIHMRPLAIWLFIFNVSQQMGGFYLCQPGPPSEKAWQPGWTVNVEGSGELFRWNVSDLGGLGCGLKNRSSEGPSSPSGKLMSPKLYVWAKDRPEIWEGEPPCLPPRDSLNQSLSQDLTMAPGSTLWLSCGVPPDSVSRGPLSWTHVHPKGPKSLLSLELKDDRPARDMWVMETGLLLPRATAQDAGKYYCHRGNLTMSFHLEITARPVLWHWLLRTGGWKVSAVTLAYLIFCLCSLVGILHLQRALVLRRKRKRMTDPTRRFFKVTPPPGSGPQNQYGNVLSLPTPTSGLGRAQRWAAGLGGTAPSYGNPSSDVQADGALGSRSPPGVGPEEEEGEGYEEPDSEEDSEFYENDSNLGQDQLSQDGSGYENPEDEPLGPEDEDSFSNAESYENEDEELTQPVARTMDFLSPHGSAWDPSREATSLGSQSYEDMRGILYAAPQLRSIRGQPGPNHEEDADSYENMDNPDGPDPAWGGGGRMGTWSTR

Substance “anti-CD19 CAR (anti-CD19 CAR cassette as described in WO 2012/079000), expressed on transduced T-cells” returned a change in IL-12 expression (NFAT promoter, 3'-UTR not responsive to CAR stimulation) of 50 fold; a change in IL-12 expression (NFAT promoter, RDE1 (Gold1)) of 168 fold; a change in IL-12 expression (minP promoter, RDE1 (Gold1)) of 6.3 fold; a change in activated cells in the population (CD25, CD69; GFP-RDE1 bicistronic construct) of 0.9 to 84.8%. For the same substance, the change in activated cells in the population (CD25, CD69; GFP-RDE2.1 bicistronic construct) lay in the range of 3.9 to 12.1%; the change in activated cells in the population (CD25, CD69; doubly transduced T-cells) lay within 0.9 to 56.9%; the change in activated cells in the population (CD25, CD69; singly transduced, bicistronic construct) fell in the range of 3.6 to 5.8%; the increase in bioluminescence (MinP promoter, RDE1) turned out to be 4.1 fold. The substance also gave an increase in bioluminescence (MinP promoter, RDE2) of 1.8 fold; an increase in bioluminescence (MinP promoter, RDE3) of 1.4 fold; an increase in bioluminescence (NFAT promoter, RDE1) of 8.5 fold; an increase in bioluminescence (NFAT promoter, RDE2) of 3.1 fold. Besides, the increase in bioluminescence (NFAT promoter, RDE3) came to 1.3 fold; the increase in fluorescence (GFP-RDE1) came to 6.5%; the increase in fluorescence (GFP-RDE2, doubly transduced T-cells) was 19.5 to 42.5%.
